Data on 20 molecules can be found in patent publication US20240034774A1 (Gilead, published 2024).

Where a chain is given by its changes, count along the chain named.

B1: 1.1.29-1 (antibody, human IgG1, kappa)
heavy: QVQLLQSGAAVTKPGASVRVSCEASGYNIRDYFIHWWRQAPGQGLQWVGWINPKTGQPNNPRQFQGRVSLTRHASWDFDTFSFYMDLKALRSDDTAVYFCARQRSDYWDFDVWGSGTQVTVSSASTKGPSVFPLAPSSKSTSGGTAALGCLVKDYFPEPVTVSWNSGALTSGVHTFPAVLQSSGLYSLSSVVTVPSSSLGTQTYICNVNHKPSNTKVDKKVEPKSCDKTHTCPPCPAPELLAGPDVFLFPPKPKDTLMISRTPEVTCVVVDVSHEDPEVKFNWYVDGVEVHNAKTKPREEQYNSTYRVVSVLTVLHQDWLNGKEYKCKVSNKALPLPEEKTISKAKGQPREPQVYTLPPSREEMTKNQVSLTCLVKGFYPSDIAVEWESNGQPENNYKTTPPVLDSDGSFFLYSKLTVDKSRWQQGNVFSCSVLHEALHSHYTQKSLSLSPGK
light: DIQMTQSPSSLSASVGDTVTITCQANGYLNWYQQRRGKAPKLLIYDGSKLERGVPSRFSGRRWGQEYNLTINNLQPEDIATYFCQVYEFVGPGTNVDIKRTVAAPSVFIFPPSDEQLKSGTASVVCLLNNFYPREAKVQWKVDNALQSGNSQESVTEQDSKDSTYSLSSTLTLSKADYEKHKVYACEVTHQGLSSPVTKSFNRGEC
B2: 1.1.32-1 (antibody, human IgG1, kappa)
heavy: B1 heavy
light: B1 light with N68T, N72S, N73S, G91T, N95R, V96L, I98L
B3: 1.4.1-1 (antibody, human IgG1, kappa)
heavy: B1 heavy with L5V
light: B1 light with G91V, N95R, V96L, I98L
B4: 1.2.1-1 (antibody, human IgG1, kappa)
heavy: B1 heavy with A10E, T12K, Q118M
light: B1 light with G91V, N95R, V96L, I98L
B5: 1.1.35-1 (antibody, human IgG1, kappa, V domains shown)
VH: QVQLLQSGAAVTKPGASVRVSCEASGYNIRDYFIHWWRQAPGQGLQWVGWINPKTGQPNNPRQFQGRVSLTRHASWDFDTFSFYMDLKALRSDDTAVYFCARQRSDYWDFDVWGSGTQVTVSS
VL: DIQMTQSPSSLSASVGDRVTITCQANGYLNWYQQKPGKAPKLLIYDGSNLETGVPSRFSGSRWGQEYTLTISSLQPEDIATYFCQVYEFVGPGTNLDIKR
B6: 1.11.1-1 (antibody, human IgG1, kappa)
heavy: B1 heavy with I34M, F83A
light: B1 light with G91V, N95R, V96L, I98L
B7: 1.1.30-1 (antibody, human IgG1, kappa)
heavy: B1 heavy
light: B1 light with G91T
B8: 1.10.1-1 (antibody, human IgG1, kappa)
heavy: B1 heavy with I34M
light: B1 light with G91V, N95R, V96L, I98L
B9: 1.1.36-1 (antibody, human IgG1, kappa)
heavy: B1 heavy
light: DIQMTQSPSSLSASVGDRVTITCQANGYLNWYQQKPGKAPKLLIYDGSNLETGVPSRFSGSRWGQEYTLTISSLQPEDIATYFCQVYEFVTPGTNLDIKRTVAAPSVFIFPPSDEQLKSGTASVVCLLNNFYPREAKVQWKVDNALQSGNSQESVTEQDSKDSTYSLSSTLTLSKADYEKHKVYACEVTHQGLSSPVTKSFNRGEC
B10: 1.8.1-1 (antibody, human IgG1, kappa)
heavy: B1 heavy with L5V, A10E
light: B1 light with G91V, N95R, V96L, I98L
B11: 1.5.1-1 (antibody, human IgG1, kappa)
heavy: B1 heavy with L5V, E23K
light: B1 light with G91V, N95R, V96L, I98L
B12: 1.12.17-1 (antibody, human IgG1, kappa, V domains shown)
VH: B5 VH with W37V
VL: DIQMTQSPSSLSASVGDTVTITCQANGYLNWYQQRRGKAPKLLIYDGSKLERGVPSRFSGRRWGQEYNLTINNLQPEDIATYFCQVYEFFGPGTRLDLKR
B13: 1.12.15-1 (antibody, human IgG1, kappa)
heavy: B1 heavy with W37V
light: B1 light with V90F, G91V, N95R, V96L, I98L
B14: 1.9.1-1 (antibody, human IgG1, kappa)
heavy: B1 heavy with L5V, A10E, T12K, E23K
light: B1 light with G91V, N95R, V96L, I98L
B15: 1.6.1-1 (antibody, human IgG1, kappa)
heavy: B1 heavy with A10E
light: B1 light with G91V, N95R, V96L, I98L
B16: 1.7.1-1 (antibody, human IgG1, kappa)
heavy: B1 heavy with A10E, T12K
light: B1 light with G91V, N95R, V96L, I98L
B17: 1.3.1-1 (antibody, human IgG1, kappa)
heavy: B1 heavy with Q3S
light: B1 light with G91V, N95R, V96L, I98L
B18: 1.1.31-1 (antibody, human IgG1, kappa)
heavy: B1 heavy
light: B1 light with N68T, N72S, N73S, G91V, V96L, I98L
B19: 1.1.34-1 (antibody, human IgG1, kappa)
heavy: B1 heavy
light: B9 light with R18T, K35R, P36R, T52R, S61R, N95R
B20: 1.1.33-1 (antibody, human IgG1, kappa)
heavy: B1 heavy
light: B9 light with R18T, K35R, P36R, T52R, S61R, T91V

One experiment addresses BSA (UniProt P02769 25-607). As to the kind of experiment: single-point ELISA, BSA control.
For B1, the “ELISA A450” value is 0.06 A450.
In the case of B2, the “ELISA A450” value amounted to 0.06 A450.
Turning to B3, the “ELISA A450” value is 0.06 A450.
On the same count and under the same terms, as for B4, the figure is 0.07 A450; as for B5, 0.08 A450.
For B6, the “ELISA A450” value is 0.09 A450.
On the same count and under the same terms, then B7, with 0.06 A450; and B8, with 0.06 A450; and B9, with 0.06 A450.
The same measure, in the same setting: as for B10, the figure is 0.06 A450; as for B11, 0.06 A450; as for B12, 0.06 A450.
As to B13, the “ELISA A450” value came out at 0.06 A450.
On to B14, for which the “ELISA A450” value was determined as 0.06 A450.
Consider B15, for which the “ELISA A450” value came to 0.06 A450.
In the case of B16, the “ELISA A450” value was found to be 0.06 A450.
Same read-out and setting: as for B17, the figure is 0.06 A450; as for B18, 0.06 A450.
Turning to B19, the “ELISA A450” value was 0.06 A450.
As to B20, the “ELISA A450” value was determined as 0.07 A450.

In another experiment the target is gp120 SHIV SF162 P3 (SHIV SF162 P3). As to the kind of experiment: single-point ELISA at EC50 conc. of A-1.
B1: the “ELISA A450” value turned out to be 0.9 A450.
Take B2: the “ELISA A450” value is 0.89 A450.
As for B3, the “ELISA A450” value came out at 1.19 A450.
B4: the “ELISA A450” value turned out to be 1.02 A450.
As for B5, the “ELISA A450” value was found to be 0.72 A450.
Still for that read-out and setting: then B6, with 0.57 A450.
Still for that read-out and setting: as for B7, the figure is 0.98 A450; as for B8, 1.03 A450; as for B9, 0.72 A450.
Take B10: the “ELISA A450” value is 0.94 A450.
Turning to B11, the “ELISA A450” value stood at 1.15 A450.
Same read-out and setting: then B12, with 0.75 A450.
Still for that read-out and setting: then B13, with 0.53 A450.
On the same count and under the same terms, as for B14, the figure is 1.23 A450; as for B15, 1.1 A450; as for B16, 1.08 A450.
With B17, the “ELISA A450” value was 1.13 A450.
As to B18, the “ELISA A450” value was 0.87 A450.
Regarding B19, the “ELISA A450” value amounted to 0.83 A450.
On the same count and under the same terms, as for B20, the figure is 0.84 A450.

Another experiment has as its target gp120 CAAN (HIV (CAAN)). The experiment is described as follows: single-point ELISA at EC50 conc. of A-1.
As for B1, the “ELISA A450” value amounted to 1.01 A450.
The same measure, in the same setting: then B2, with 1.04 A450.
Still for that read-out and setting: then B3, with 0.96 A450; and B4, with 1.01 A450; and B5, with 0.75 A450.
The same measure, in the same setting: then B6, with 0.75 A450; and B7, with 0.86 A450; and B8, with 0.94 A450.
Consider B9, for which the “ELISA A450” value was 0.88 A450.
Still for that read-out and setting: as for B10, the figure is 0.9 A450; as for B11, 1.07 A450.
B12: the “ELISA A450” value was found to be 0.84 A450.
On the same count and under the same terms, as for B13, the figure is 0.63 A450; as for B14, 0.98 A450; as for B15, 0.9 A450.
With B16, the “ELISA A450” value was found to be 1.04 A450.
On to B17, for which the “ELISA A450” value was found to be 0.94 A450.
Consider B18, for which the “ELISA A450” value came to 0.96 A450.
Same read-out and setting: as for B19, the figure is 0.96 A450; as for B20, 0.94 A450.

In another experiment the target is gp120 Bal (HIV (Bal)). As to the kind of experiment: single-point ELISA at EC50 conc. of A-1.
Turning to B1, the “ELISA A450” value amounted to 0.91 A450.
In the case of B2, the “ELISA A450” value was 0.93 A450.
Consider B3, for which the “ELISA A450” value came out at 1.04 A450.
Same read-out and setting: then B4, with 0.93 A450; and B5, with 0.96 A450.
On the same count and under the same terms, as for B6, the figure is 0.93 A450; as for B7, 0.9 A450; as for B8, 0.95 A450.
B9: the “ELISA A450” value is 0.93 A450.
Consider B10, for which the “ELISA A450” value was determined as 0.86 A450.
On the same count and under the same terms, then B11, with 0.92 A450; and B12, with 0.9 A450; and B13, with 0.69 A450.
On the same count and under the same terms, then B14, with 1.08 A450; and B15, with 0.95 A450.
Same read-out and setting: as for B16, the figure is 0.98 A450; as for B17, 0.97 A450; as for B18, 0.87 A450.
For B19, the “ELISA A450” value came out at 0.9 A450.
On the same count and under the same terms, then B20, with 0.87 A450.
